The experiment deals with HLA-B*44:05 (Homo sapiens, UniProt P01889, A223V/A65T/A93T/A95T/D201E/D98Y/E176V/E187L/E204Q/E69K/G107R/H137Y/K202T/L105A/L119I/N104T/N87E/Q56L/Q94N/R106L/R155S/R180D/S101N/S121R/S35A/S48T/T118I/V36M/W191S/Y91S). In words: MHC binding assay (UV-ligand exchange, β2m ELISA, peptide exchange yield). The conditions noted are these: binding to HLA-B*44:05. In a few lines: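 Binding is read as exchange yield, i.e. stabilized complex remaining after UV cleavage of a photolabile ligand in the presence of the candidate peptide. Streptavidin-captured monomers (100-fold dilution) are probed with HRP-anti-β2m, 1h at 37° C, TMB, A450. Standard curve: HLA-A*02:01/MLA-001 monomers at 15-500 ng/ml.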
A general note: An ELISA detects its analyte on a solid surface through an enzyme-linked reagent.
Consider “433 (AEEGPSVPKIY; listed as Homo sapiens) [compound 433]”, for which the “Peptide exchange (MHC class I binding score, peptide exchange yield)” value (“Peptide exchange” for short) is listed as “+++ (>50 = +++)”.

Regarding “124 (NENLDYAIL; listed as Homo sapiens) [compound 124]”, the “Peptide exchange” value is “++++ (>75% = ++++)”.

With “3 (DEIFTNDRRW; listed as Homo sapiens) [compound 3]”, the “Peptide exchange” value is given as “++ (>20% = ++)”.

Take “344 (DEIRVFGY; listed as Homo sapiens) [compound 344]”: the “Peptide exchange” value is “++ (>20% = ++)”.

For the substance “207 (LEGGGRGGEF; listed as Homo sapiens) [compound 207]”, the “Peptide exchange” value is on record as “++ (>20% = ++)”.

In the case of “110 (EVEVGEVKSW; listed as Homo sapiens) [compound 110]”, the “Peptide exchange” value was “+ (>10% = +)”.

As to “121 (YENIPVDKV; listed as Homo sapiens) [compound 121]”, the “Peptide exchange” value is recorded as “+++ (>50 = +++)”.

With “291 (DEQLLLRF; listed as Homo sapiens) [compound 291]”, the “Peptide exchange” value is given as “++ (>20% = ++)”.

Take “306 (RRHPSFKRF; listed as Homo sapiens) [compound 306]”: the “Peptide exchange” value is reported as “+ (>10% = +)”.

For “221 (KEAFGPQAL; listed as Homo sapiens) [compound 221]”, the “Peptide exchange” value is “++++ (>75% = ++++)”.

For the substance “173 (SEHSLEGQKF; listed as Homo sapiens) [compound 173]”, the “Peptide exchange” value is on record as “+++ (>50 = +++)”.

With “383 (EEMERDLDMY; listed as Homo sapiens) [compound 383]”, the “Peptide exchange” value was “+++ (>50 = +++)”.

In the case of “350 (EEMLENVSL; listed as Homo sapiens) [compound 350]”, the “Peptide exchange” value is reported as “+++ (>50 = +++)”.

Consider “223 (SEVEGLAFV; listed as Homo sapiens) [compound 223]”, for which the “Peptide exchange” value is “+++ (>50 = +++)”.

Take “191 (AEHDMKSVL; listed as Homo sapiens) [compound 191]”: the “Peptide exchange” value is on record as “+++ (>50 = +++)”.

For “299 (AEVQIARKL; listed as Homo sapiens) [compound 299]”, the “Peptide exchange” value was “+++ (>50 = +++)”.

Regarding “411 (AERDLNVTI; listed as Homo sapiens) [compound 411]”, the “Peptide exchange” value was “+++ (>50 = +++)”.

Take “106 (SVISDSPRSW; listed as Homo sapiens) [compound 106]”: the “Peptide exchange” value was “+++ (>50 = +++)”.

With “140 (TEHSGIYSC; listed as Homo sapiens) [compound 140]”, the “Peptide exchange” value is reported as “++ (>20% = ++)”.

Turning to “329 (SEPQITVNF; listed as Homo sapiens) [compound 329]”, the “Peptide exchange” value is listed as “+++ (>50 = +++)”.

For the substance “189 (ALNGDIYVW; listed as Homo sapiens) [compound 189]”, the “Peptide exchange” value is “++++ (>75% = ++++)”.

For the substance “358 (TEFHGGLHY; listed as Homo sapiens) [compound 358]”, the “Peptide exchange” value is given as “+++ (>50 = +++)”.

As for “120 (VTEGAVEVKY; listed as Homo sapiens) [compound 120]”, the “Peptide exchange” value is recorded as “+ (>10% = +)”.

As for “401 (VENIFHNF; listed as Homo sapiens) [compound 401]”, the “Peptide exchange” value is “++ (>20% = ++)”.

For “279 (GEPVTQPGSLL; listed as Homo sapiens) [compound 279]”, the “Peptide exchange” value was “+++ (>50 = +++)”.

For the substance “362 (SEVEYINKY; listed as Homo sapiens) [compound 362]”, the “Peptide exchange” value is recorded as “+++ (>50 = +++)”.

In the case of “417 (EESFRCLPEW; listed as Homo sapiens) [compound 417]”, the “Peptide exchange” value was “++++ (>75% = ++++)”.

With “254 (QEVAGYVLI; listed as Homo sapiens) [compound 254]”, the “Peptide exchange” value was “+++ (>50 = +++)”.

For the substance “216 (AGSPVMRKW; listed as Homo sapiens) [compound 216]”, the “Peptide exchange” value is listed as “++ (>20% = ++)”.

Turning to “227 (ALTEDSIDDTF; listed as Homo sapiens) [compound 227]”, the “Peptide exchange” value is reported as “+ (>10% = +)”.

In the case of “372 (EEYKFPSLF; listed as Homo sapiens) [compound 372]”, the “Peptide exchange” value is on record as “+++ (>50 = +++)”.

With “316 (RLWPEPENW; listed as Homo sapiens) [compound 316]”, the “Peptide exchange” value is given as “++ (>20% = ++)”.

Regarding “38 (DEVRFFKGNKY; listed as Homo sapiens) [compound 38]”, the “Peptide exchange” value was “++ (>20% = ++)”.

“14 (EMPGGPVW; listed as Homo sapiens) [compound 14]”: the “Peptide exchange” value is on record as “+++ (>50 = +++)”.

Take “377 (AEDARGWTA; listed as Homo sapiens) [compound 377]”: the “Peptide exchange” value was “++ (>20% = ++)”.

Take “325 (AEQEIMKKV; listed as Homo sapiens) [compound 325]”: the “Peptide exchange” value is on record as “++++ (>75% = ++++)”.

As for “352 (QEDELVKIRKY; listed as Homo sapiens) [compound 352]”, the “Peptide exchange” value is given as “+++ (>50 = +++)”.

As to “301 (AERIMFSDL; listed as Homo sapiens) [compound 301]”, the “Peptide exchange” value is “++++ (>75% = ++++)”.

As to “58 (KEMDPSRQSY; listed as Homo sapiens) [compound 58]”, the “Peptide exchange” value was “+++ (>50 = +++)”.

“117 (SEVPVDSHY; listed as Homo sapiens) [compound 117]”: the “Peptide exchange” value is “+++ (>50 = +++)”.

As for “144 (IEAYLERIGY; listed as Homo sapiens) [compound 144]”, the “Peptide exchange” value is on record as “+++ (>50 = +++)”.

Regarding “259 (IEVSSPITLQAL; listed as Homo sapiens) [compound 259]”, the “Peptide exchange” value is “++ (>20% = ++)”.

Take “226 (AEDNMVTSY; listed as Homo sapiens) [compound 226]”: the “Peptide exchange” value is recorded as “+++ (>50 = +++)”.

Turning to “95 (AAFEDAQGHIW; listed as Homo sapiens) [compound 95]”, the “Peptide exchange” value is “++++ (>75% = ++++)”.

Take “321 (AENPLNIFYI; listed as Homo sapiens) [compound 321]”: the “Peptide exchange” value is recorded as “+++ (>50 = +++)”.

Consider “339 (NEVKEIKGY; listed as Homo sapiens) [compound 339]”, for which the “Peptide exchange” value is given as “+++ (>50 = +++)”.

For “341 (HELESENKKW; listed as Homo sapiens) [compound 341]”, the “Peptide exchange” value is “+++ (>50 = +++)”.

With “432 (TEENGFWYL; listed as Homo sapiens) [compound 432]”, the “Peptide exchange” value was “++++ (>75% = ++++)”.

Turning to “229 (AEDLEKKYA; listed as Homo sapiens) [compound 229]”, the “Peptide exchange” value is “++ (>20% = ++)”.

For the substance “253 (QEILHGAVRF; listed as Homo sapiens) [compound 253]”, the “Peptide exchange” value was “+++ (>50 = +++)”.

For the substance “391 (TESIGAQIY; listed as Homo sapiens) [compound 391]”, the “Peptide exchange” value was “+++ (>50 = +++)”.

“188 (AEFVPKADLL; listed as Homo sapiens) [compound 188]”: the “Peptide exchange” value is “+++ (>50 = +++)”.

Regarding “442 (KESDAGKYY; listed as Homo sapiens) [compound 442]”, the “Peptide exchange” value was “+++ (>50 = +++)”.

Take “115 (QEPFTRPVL; listed as Homo sapiens) [compound 115]”: the “Peptide exchange” value was “+++ (>50 = +++)”.

For “425 (KEVDPASNTY; listed as Homo sapiens) [compound 425]”, the “Peptide exchange” value is given as “+++ (>50 = +++)”.

With “195 (MEIKGTVTEF; listed as Homo sapiens) [compound 195]”, the “Peptide exchange” value is “+++ (>50 = +++)”.

For the substance “77 (QETLAESTW; listed as Homo sapiens) [compound 77]”, the “Peptide exchange” value was “+++ (>50 = +++)”.

Regarding “131 (RESHLTEIRQY; listed as Homo sapiens) [compound 131]”, the “Peptide exchange” value is on record as “++ (>20% = ++)”.

Regarding “393 (SETILAVGL; listed as Homo sapiens) [compound 393]”, the “Peptide exchange” value is listed as “+++ (>50 = +++)”.

Turning to “308 (EEPKIDFRVY; listed as Homo sapiens) [compound 308]”, the “Peptide exchange” value is “+++ (>50 = +++)”.

“179 (EEHIFSAF; listed as Homo sapiens) [compound 179]”: the “Peptide exchange” value is recorded as “++ (>20% = ++)”.

The values are drawn from patent US12065471B2, “B*44 restricted peptides for use in immunotherapy against cancers and related methods” (Immatics Biotechnologies GmbH, priority 2018, dated 2024).
